Laboratory results from PMC9263355, “Galectin-3 Decreases 4-1BBL Bioactivity by Crosslinking Soluble and Membrane Expressed 4-1BB” (Frontiers in Immunology, 2022).

Biological target: T1, recombinant human (rh)4-1BB Fc chimera protein (human, UniProt Q07011 24-186)
T1 construct: human 4-1BB (CD137/TNFRSF9), the part of it in the R&D Systems Fc chimera; Glycosylated; also called CD137; TNFRSF9; source: bought: R&D Systems
Assay: fluorescence polarisation; fluorescence anisotropy in solution, by inhibition: fixed galectin (0.2-2.5 µM) with 0.02 µM of its fluorescent probe, in the presence of 0.07-4.75 µM (rh)4-1BB Fc or (rh)IgG1 Fc; average Kd from the points with ≥ 15% inhibition
Details: both partners purified

T1 sequence (Q07011 24-186, change not shown): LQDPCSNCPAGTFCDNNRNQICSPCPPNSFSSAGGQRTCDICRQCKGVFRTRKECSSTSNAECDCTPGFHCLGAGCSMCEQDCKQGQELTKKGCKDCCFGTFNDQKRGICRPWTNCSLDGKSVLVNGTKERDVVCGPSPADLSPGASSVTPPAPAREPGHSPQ

B1: recombinant human galectin-2 (natural protein, UniProt P05162 1-132, looked up)
chain: MTGELEVKNMDMKPGSTLKITGSIADGTDGFVINLGQGTDKLNLHFNPRFSESTIVCNSLDGSNWGQEQREDHLCFSPGSEVKFTVTFESDKFKVKLPDGHELTFPNRLGHSHLSYLSVRGGFNMSSFKLKE
notes: human galectin-2; also called Gal-2
Binder B1 has a Kd of 6.12 µM.
